# Molecular target: human GPC3 full-length protein on cells (CHO-K1-hGPC3; cells expressing GPC3) (human, UniProt P51654 25-580)
# Experiment: cell-based or functional assay
# Chain of human GPC3 full-length protein on cells (CHO-K1-hGPC3; cells expressing GPC3) (P51654 25-580, form in doubt): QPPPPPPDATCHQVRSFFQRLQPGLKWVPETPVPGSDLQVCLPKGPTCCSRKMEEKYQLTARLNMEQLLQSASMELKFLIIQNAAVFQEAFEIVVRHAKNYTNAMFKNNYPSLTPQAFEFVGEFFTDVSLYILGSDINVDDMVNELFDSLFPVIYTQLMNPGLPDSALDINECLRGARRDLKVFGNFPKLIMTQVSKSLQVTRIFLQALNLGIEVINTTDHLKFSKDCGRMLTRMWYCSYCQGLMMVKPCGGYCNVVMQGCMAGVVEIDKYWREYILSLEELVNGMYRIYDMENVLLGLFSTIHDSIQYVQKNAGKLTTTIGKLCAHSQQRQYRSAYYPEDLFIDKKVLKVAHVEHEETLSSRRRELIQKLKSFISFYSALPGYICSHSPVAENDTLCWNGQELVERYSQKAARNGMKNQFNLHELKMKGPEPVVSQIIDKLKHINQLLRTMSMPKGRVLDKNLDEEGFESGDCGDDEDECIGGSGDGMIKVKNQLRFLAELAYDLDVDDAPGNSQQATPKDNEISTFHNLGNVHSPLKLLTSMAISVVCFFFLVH
binder,measurement,value
"humanized antibody Ab9 (antibody, human IgG1, kappa, V domains shown) VH: QVQLVQSGAEVKKPGASVKVSCKASGYTFTDYEMHWVRQAPGQGLEWMGAIDPKTGRTAYNQKFKDRVTLTADKSTSTAYMELSSLTSEDTAVYYCTRYYSYAYWGQGTLVTVSS VL: DVVMTQSPLSLSVTPGEPASISCRSSQSLVHSNRNTYLQWYLQKPGQPPQLLIYKVSNRFSGVPDRFSGSGSGTDFTLKISRVEAEDVGVYYCSQSIHVPYTFGQGTKLEIKR","CDC, IC50",0.308 nM
